Test results from a protein production outcome set (Wang et al. 2014).

Experiment: label from the status in PepcDB records

Sequence | protein production
MNMVEPLAVAILIAYLVALLLIGLLSSKKSSVGMTDFFIAGRNLNKWTVALSAVSSGRSAWLVLGVTGTAYATGLDAVWAVAGYITVEVFLFFYVARRFRAYSEQTGSITIPDILETRFNDKTHILRGGSAFIIMFFMIAYVASQLVAGGGAFATSMGVSSSTGMWVTAVILLAYTMLGGFHAVSKTDVVQAGFMFVSLVILPVVAIIGLGGFDPLLQVMHTEGGGFTSPFAFGFGAVIGLLGIGFGSPGNPHILVRYMSLKNVKEMRQAALISSVWNVLMGWGAVMIGLAGRAYFPDVSLLPNGDQEQVFLMLGSEILHPLFFGFLLVAVLAAIMSSADSQLLVGSSAFVRDIYQKMFRRNRKLSQKKLVRLSRLTTVVFMGLSLILAFTAQEFVFWMVLFAFGGLGACFGPALLLSFYWKGVTRQGVLWGMIAGLLTVILVKQQPQWTYAFLPDVKELLNTYFFGITYEAVPGFIVATTITVVISLFTKRPKHAKQIIERLNESA | failed
MGPLLVWHRGDLRLHDHPALLEALARGPVVGLVVLDPNNLKTTPRRRAWFLENVRALREAYRARGGALWVLEGLPWEKVPEAARRLKAKAVYALTSHTPYGRYRDGRVREALPVPLHLLPAPHLLPPDLPRAYRVYTPFSRLYRGAAPPLPPPEALPKGPEEGEIPREDPGLPLPEPGEEAALAGLRAFLEAKLPRYAEERDRLDGEGGSRLSPYFALGVLSPRLAAWEAERRGGEGARKWVAELLWRDFSYHLLYHFPWMAERPLDPRFQAFPWQEDEALFQAWYEGKTGVPLVDAAMRELHATGFLSNRARMNAAQFAVKHLLLPWKRCEEAFRHLLLDGDRAVNLQGWQWAGGLGVDAAPYFRVFNPVLQGERHDPEGRWLKRWAPEYPSYAPKDPVVDLEEARRRYLRLARDLARG | not failed
MTMADETIILNVLGQYTRAHDRRDPDAMAALFAPEATIEIVDAVGGASRSISRLEGRDAIRVAVRQMMAPHGYRAWSQNVVNAPIIVIEGDHAVLDAQFMVFSILAAEVPDGGWPTGTFGAQGRIVPIEAGQYRLTLRTVADGWVISAMRIEHRLPMAFG | not failed
MMSSSTTTLVDAVASPQAQQAVYIGLVNPKTPTNVGGIMRASGCYGVDAVFYTGKRYEYAARGPQQYNADTQSAAERIPLTGVTSLLDAIPAGTQLVCVDLVLGATPLPEFVHPERAFYVFGPEDGTIGQEIIDRADAVVYVPTVGCMNLAASVNVLLYDRLAKTYRKQATNEAEFDGDALIRTSRDNNNRTRVKTTKRESSK | failed
SDILKDPPSEANSIQSANATTKTSETNHTSRPRLKNVDRSTAQQLAVTVGNVTVIITDFKEK | failed
MRLFFSLLILLSFFARATEPVQVFTDDLGRKVTVPAHPKRIVSLHDLDITIPLIELGVPPVASHGRTRPDGSHFIRSGALLTGVDFDNSSIAFIGTADIDIEAIVAAKPDLIITEPTRNTPIERLEKIAPTVSIDHLKGGAPEIYRKLAELTGTQSQLAILERRYQAQINALKATLDSQKITVSVIQANQGKINVMHSYHSLGRVLRDAGFRFPPLIESIPEGGRMDVSAERLPELDADFVFATWRGDTGGKPQDELAAMEKVMPGWCQFLTACRSGRYVLISREEAISNSFASLGLMAAQIQSQIAGRPLPEAK | not failed
MAKAVASQEVANMLNDWYILMKKRDISGSIEMKDDIDKAIEKMEEDHDVLLYYQMLDFRLRLLLEDISQSSTEKLEAISFKDKDPKSTDDKLNYYFYLFKGIYEDYKQNHTEALNFFRIAEKRLSVIQNEIEKAEFHYKIGVLYYNLKATWLSIHHINIASGIFQGYDGYAKRVINCKMLIGLNYIDQFKFAESEVLLKEAIEKTEKIGDQYLLPYTYYNMGFLKSKEDKHEEALKYYNKAFAIKDFETKAKYAYLLCVYENTRSLFKTNDPDQAFKWIDTGFKKAQEVNSEIFELKFKTLYTLHSDCQNKLEVIKDFIHQLEDKKAWVDLEELLMDVANYYRENKLYEEAIYFYIKTDKASKLAGRGGE | failed
MGHHHHHHSHMTKIIPVASGKGGVGKTSFVANVGYKLSSLGKTVILVDLDLGGSNLHTCLGVKNKGVGIGSFINKKSKSFSDLVCKTSYDKLYLIPGDALYTGTANLPFSIKKKIIESIQKDLIADFIFLDLGSGTSYNTIDFYLASYSGVIVTIPETPSILNAYSFLKNALYRLLYLGFP | failed
MNNLINNPLFGILLTLFAFEIGMTIYKKTKIPLLNPLLIAIALVIAVLVSCHISFETYNIGGSFINAFLGPATVILAVPLYKQLQLLKNHFVPIMTGIIVGSFASMCCVIIMGYFLGVNHELIASLVPKSVTTPIGVEVASGLGGIPSITVIAVIITGITGAIIAPMVCKLLKIDHEVAMGVSMGTAAHAVGTTKALEIGETHGAMSSLSIGVAGLITVFLAPPIYMLSALILKFV | failed
MSLTEEFVNKEDALKNYNAKEFRTPDGYTSDMILTTVKELNGKPTLHILLIKRSLTNAEGKPNMEGGKWAVPGGFVDENESAEQAAERELEEETSLTDIPLIPFGVFDKPGRDPRGWIISRAFYAIVPPEALEKRAAGDDAAEIGLFPMTEALELPLAFDHLDMLKKAFSAITEEFLLTEGHHHHHH | not failed
MNRDLSSFKRTMNTLAVSSDVAFFNITLRFWIRRNDETREQGKFKPHTDLPRLQSFYLDYYQKNVMDVIKIIGNQYTILKEIESSAHSAAIRAIHAALPPHKINGDSRKQADSYIQHACDTAGVLFRVLELLSEDVQLPSEFLEADADVKQLAEIFRPYNIIPLYICGKYSMKRLPEY | failed
MKTRDKIIQASLELFNEHGERTITTNHIAAHLDISPGNLYYHFRNKEDIIRCIFDQYEQHLLLGFKPYADQKVDLELLMSYFDAMFYTMWQFRFMYANLADILARDDTLKARYLKVQQAVLEQSIAVLNQLKKDGILQIEDERIADLADTIKMIIGFWISYKLTQSSIATISKASLYEGLLRVLMIFKAYSTPDSLANFDRLEQHFRSQSN | not failed
MAVMDPWLIWLIVSAVLVLAEIFTLTAALGMLGVAALITAGSAAAGLSTPFQFLVFTVVSAVTLFFLRPVALRHLVQPQTQRFGVDALVGQAAYVVSDVTGREGRVRIGGEEWTARSYDETLVIPRGATVDVLEISGTTAFVYPRE | failed
ALKLMQYIGDAIGTIRDPQELFRTVTDKLRLLFAFDSAVIITIDRERREASVFFEMLRFELPEQLRHQTRSIAGTWLEGHLDDRTVTVASIARDIPSFGADGAPLLWTLHELGMRQIVLSPLRSGGRVIGFLSFVSAEEKLWSDGDKSLLSGVSSSIAIAVSNALAYEELRQRE | not failed
MAKRCALTFKGPMIGNHVSHANNKNKRRLLPNLRSIKIQLDDGTTKRIKVAASTLRTMRKGALEHHHHHH | not failed
MTVELLNEPLSRYPAFDTADPEELRQALSSVYGAKLVEGPIAADFHARSNFVQLDDIALAFGVGTGSIAVEFPEGECARLQIALSGQFTTRSGGTSTAINARQAGIISPGRNARTEYGQNYSFTLLRVSTSALERKLTTLLGCKPKASLEFEPAANNEAPQVVNLRRMLCFLANQLNCSPLPPVVLAELQEAITLLFLSAFRHNYSRQLERESHGIAPKHVRQVEEYIEANWMRPITIEKLTALTGISSRGIFKAFQRSRGYSPMAFAKRVRLQHAHNLLSDGATPTTVTAAALSCGFSNLGHFARDYRDMFGEKPSETLQRARP | failed
MKTSFSIRIAFFFILSFLAVSCHRDTDALNMTFSKVEKCMDLCPDSALNLLKGIHDPEKLWGESQATYALLMTQAMDKNYMKFSSDSLIALALNYYTITQTSPIMYAKALFYHGRVMLELDKEEEALKSFLAAKDVYERTKDHKMLALIAEEVGMINRKQDLYDDALTNFREALTTYKQLKDSLSVISASLNIARVYLFKSEWDSCSLYYNNALEIAVQKNYLSEITILHELGILYRSMQNLSEAERYFLAAYEKETDEEKKYMECLSLGYLYMQMGQTENARKYLIMSANSSKAYTQISAYDCLYFLEKDIDNFEEAIVYHELADSITNAMEELNSRELIASLQKKYENEKLRNDNLQMKVRYTNFILWGTIAFLFVVACMCYYYYKNRNNKKKIAEIELQIQENEEEIERYQQEIEDIQISKDQVLKENLMLEENRTKVGELNGKIVLLTMQNKTLSEHLKELGGELNVGISSGSFIHAFRLLLAIKEGTLRGKLSNEERQKLFSLFDLIYWNYVSRLLERAPTLTKHDLEICCFLKFGLSHEELSCIFHTTSDSVTRAKGRLKGRLGISPQDDLDLFLKEF | failed
MSQFPLISVMTFLPLLGVVLLFFVPKQSHSVHRMLALLVSLVTFVVSIPLVTGFQSNADFQFVEKMPWIAAGPFQMNYHVAIDGISLWLVLLTTFIMPIAILSTWTAVEEKVKEYMICLLLLEVGMLGAFVSLDLFLFYIFWEVMLIPMYFIIGIWGGKNKIYAAVKFFIYTMVGSMLMLVALVTLYFKAGAGDFNVLRFYEVTLDPATQVWMFLAFALAFAIKVPMFPLHTWLPDAHTEAPTAGSVILAAVLLKMGTYGFVRFAMPLFPDATDKFTPLIATLSVIGIIYAALVAMVQEDVKKLVAYSSVAHLGYVMLGVFALNLQGLSGGMLQMLNHGVSTGALFLIVGFIYERRHTRLITDFGGLAKQMPVFATIFMIVTLSSIGLPGTNGFVGEFLVLLGAFESELRWYAVIGTSGVILAAVYMLWMFQRVMFGELTNPKNQTLCDLNAREVGIMLPLLVLIFVMGVYPTPFIEKMSPSLEKLIVHVKTKQQGAVAQVETVPAAPQVMPAAAVVPAEHK | failed
MEATAVNPSIVTASRTVQPYRRLSTLSLRFPTYRNKRVSPFTLTITRCSTTKSREAGQDSSISLKRGLVFDLGVSKDSWHSEEIGSPVVKRFLSDNEERWYMWYHGSSKQNPVSDSIGLAVSNNGIHWERGNGKVESSEDVGLVMSCGEDWWGFDTASVRPGEVVIMSSSKVRANSSVYWMYYTGYTKETVEFQSQDFTSVLGNPERFHLCDENAEKSRVYYRSLPGLAISQDGRHWARIEGEHHSGALFDVGSEKDWDFLYIASPHVVFHGDGDLRMYYHSFDEKTGEFCIGMARSRDGIKWLKLGKILGGRKSEKDGLGFFDELGGRYPCVTRNKRDESYVMAYEGVDRTGKTSIGFAVSKDGIKDWKRVQDEEAVIAVGEGGAWDNEGVGCPYLIEMDGDSDHQWRLYYRGVGNGGRTAMRGEQFELEEDRDGPLELLQSLRSKATELLLREEWEESIKVYTEFIDLSRRQVSSTGGSDPDPDSIAKLRKSLCLALCNRAEARARLRDFLEAMRDCDQALEIEKTHFKTLLCKGKVLLGLSKYSLALECFKTALLDPQASDNLETVTVYIEKCKKLEFQAKTGAFDLSDWILSEFRGKCPELAEFIGSIEIKKSELSGRGLFATKNIVAGTLVLVTKAVAIERGILGNGECGEKAQLIMWKNFVEEVTESVRKCGRTRRVVSALSTGQGEDSLEIPEIALFRPDEAFETCGDWKQSLDTEKLLSILDVNSLVEDAVSGKVMGKNKEYYGVGLWTLASFINHSCIPNARRLHVGDYVIVHASRDIKTGEEISFAYFDVLSPLEKRKEMAESWGFCCGCSRCKFESVLYATNQEVREFEMGLERGVDAGNAVYMVEEGMKRWKVKGKDKGLLRASYWGVYDEIYNSERLMKRWGRKIPTMEVVVDSVSDVVGSDERLMKMAVEGMMKKHGGFSNIVEMEKIMKLGKGVYGKVVSKKKAMKTLLGIE | failed
SIEVRGKIKLGLLPETYEHLQPILFEFQDQYPQVELDIRNINNGFIDMFQQGLDIALHGGMLFDSDIVARKILTLDRCVVASPNYLQTHGTPATLEELSDHQCICFRWPNGNVDNLWHFQEQNVALKPKLISNNIGFIK | failed
MPALITYRTTVQEDWVDYNGHLRDAFYLLIFSYATDALMDRIGLDADSRGQSGNSLFTLEAHINYLHEVKLGTEVWVQTQILGFDRKRLHVYHSLHRAGFDEVLAASEQMLLHVDLAGPQSAPFGHTTVCRLNHLVEQQEGAQAPQYMGRTIKLPA | not failed
MDNVIKLVPSRWVSESVLMSISGLKKNTIKTARETSWMEGLEYKHVAPDGQPYDNSMCFYNRDEIDKWIERQPAAISRKKSA | failed
